system: Escherichia coli TOP10; assay: shrunken log2 fold change of peptide-encoding DNA abundance (4.5 h post-induction vs induction); higher = less antimicrobial activity (less host growth inhibition); conditions: time post-induction: 4.5 h; library: site-saturation at positions 5, 18, 19, 20
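Also: peptides expressed intracellularly from a pBAD plasmid library in pooled LB shake-flask culture, induced with 0.3% L-arabinose, DNA abundance read by NGS, three biological replicates, DESeq2 with apeglm shrinkage.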

Sequence | shrunken log2 fold change
RRIRDRPPRLPRPRPRPDWPPRP | -0.0123
RRIRKRPPRLPRPRPRPNNIPRP | -0.477
RRIRHRPPRLPRPRPRPTPNPRP | -0.00791
RRIRFRPPRLPRPRPRPVMDPRP | -0.378
RRIRGRPPRLPRPRPRPVSWPRP | 1.06
RRIRERPPRLPRPRPRPRKCPRP | -0.0265
RRIRGRPPRLPRPRPRPVYNPRP | 0.0349
RRIRARPPRLPRPRPRPSLTPRP | 0.172
RRIRVRPPRLPRPRPRPTGMPRP | 0.0943
RRIRKRPPRLPRPRPRPPPAPRP | 1.29
RRIRRRPPRLPRPRPRPGYQPRP | 0.0538
RRIRERPPRLPRPRPRPLRIPRP | -0.277
RRIRQRPPRLPRPRPRPYTEPRP | -0.00136
RRIRLRPPRLPRPRPRPILYPRP | -0.314
RRIRKRPPRLPRPRPRPTIRPRP | -0.241
RRIRCRPPRLPRPRPRPGTVPRP | -0.339
RRIRYRPPRLPRPRPRPTGEPRP | -0.0166
RRIRCRPPRLPRPRPRPKQQPRP | 0.143
RRIRIRPPRLPRPRPRPDRYPRP | -0.032
RRIRMRPPRLPRPRPRPNYKPRP | -0.504
RRIRRRPPRLPRPRPRPNGDPRP | 0.241
RRIRMRPPRLPRPRPRPKHTPRP | 1.93
RRIRGRPPRLPRPRPRPTNYPRP | 1.07

Sequence | shrunken log2 fold change
RRIRNRPPRLPRPRPRPYAVPRP | -0.0739
RRIRLRPPRLPRPRPRPEAHPRP | -0.187
RRIRWRPPRLPRPRPRPSSLPRP | 0.449
RRIRHRPPRLPRPRPRPTETPRP | 0.146
RRIRKRPPRLPRPRPRPGFDPRP | 0.98
RRIRFRPPRLPRPRPRPSRKPRP | -0.0267
RRIRKRPPRLPRPRPRPDIMPRP | 1.57
RRIRWRPPRLPRPRPRPIAIPRP | -0.347
RRIRWRPPRLPRPRPRPQVVPRP | -0.00458
RRIRCRPPRLPRPRPRPMPIPRP | -0.197
RRIRIRPPRLPRPRPRPGRHPRP | 0.0231
RRIRHRPPRLPRPRPRPASKPRP | -0.0351
RRIRCRPPRLPRPRPRPRWKPRP | 0.847
RRIRCRPPRLPRPRPRPWHCPRP | -0.0285
RRIRQRPPRLPRPRPRPLHPPRP | -0.0917
RRIRLRPPRLPRPRPRPTQAPRP | 0.507
RRIRMRPPRLPRPRPRPFCVPRP | 0.00978
RRIRMRPPRLPRPRPRPGNFPRP | 0.121
RRIRLRPPRLPRPRPRPFNEPRP | -0.255
RRIRMRPPRLPRPRPRPFKLPRP | 0.102
RRIRERPPRLPRPRPRPPSMPRP | -0.242
RRIRWRPPRLPRPRPRPRTAPRP | 0.564
RRIRFRPPRLPRPRPRPYSCPRP | -0.388

Sequence | shrunken log2 fold change
RRIRQRPPRLPRPRPRPEHYPRP | -0.153
RRIRTRPPRLPRPRPRPIMYPRP | -0.347
RRIRIRPPRLPRPRPRPQHGPRP | -0.184
RRIRHRPPRLPRPRPRPEYWPRP | -0.0523
RRIRGRPPRLPRPRPRPPLYPRP | 0.459
RRIRWRPPRLPRPRPRPSKTPRP | 0.0507
RRIRARPPRLPRPRPRPRCKPRP | 0.51
RRIRARPPRLPRPRPRPLVHPRP | -0.139
RRIRQRPPRLPRPRPRPWCYPRP | -0.466
RRIRQRPPRLPRPRPRPIQHPRP | 0.14
RRIRNRPPRLPRPRPRPAWQPRP | -0.0152
RRIRFRPPRLPRPRPRPTIMPRP | -0.375
RRIRVRPPRLPRPRPRPPTNPRP | 1.14
RRIRGRPPRLPRPRPRPFKHPRP | -0.527
RRIRGRPPRLPRPRPRPLKTPRP | 0.58
RRIRHRPPRLPRPRPRPRMVPRP | -0.0236
RRIRCRPPRLPRPRPRPFGLPRP | -0.0423
RRIRWRPPRLPRPRPRPWTLPRP | -0.0248
RRIRLRPPRLPRPRPRPFAHPRP | -0.367
RRIRDRPPRLPRPRPRPWSMPRP | -0.0018
RRIRARPPRLPRPRPRPIREPRP | -0.018
RRIRWRPPRLPRPRPRPTHCPRP | 0.213
RRIRGRPPRLPRPRPRPLGGPRP | 0.615

Sequence | shrunken log2 fold change
RRIRERPPRLPRPRPRPCHMPRP | 0.0597
RRIRTRPPRLPRPRPRPIIVPRP | -0.0629
RRIRPRPPRLPRPRPRPEKSPRP | 0.264
RRIRYRPPRLPRPRPRPKLIPRP | -0.775
RRIRSRPPRLPRPRPRPSQEPRP | -0.26
RRIRIRPPRLPRPRPRPNNQPRP | -0.836
RRIRPRPPRLPRPRPRPAMAPRP | 0.388
RRIRKRPPRLPRPRPRPPVVPRP | 0.453
RRIRVRPPRLPRPRPRPFSSPRP | -0.068
RRIRTRPPRLPRPRPRPHFPPRP | -0.199
RRIRNRPPRLPRPRPRPQLEPRP | 0.307
RRIRNRPPRLPRPRPRPRELPRP | 0.287
RRIRHRPPRLPRPRPRPMWRPRP | 0.136
RRIRKRPPRLPRPRPRPCSTPRP | 0.0274
RRIRCRPPRLPRPRPRPPRYPRP | 0.753
RRIRSRPPRLPRPRPRPCIPPRP | -0.417
RRIRQRPPRLPRPRPRPFEWPRP | 0.0112
RRIRARPPRLPRPRPRPRMRPRP | 0.954
RRIRWRPPRLPRPRPRPCTAPRP | 0.119
RRIRKRPPRLPRPRPRPQSAPRP | 0.319
RRIRHRPPRLPRPRPRPFVMPRP | -0.281
RRIRYRPPRLPRPRPRPRKIPRP | -0.483
